Assay results as given in article PMC8530227.

Molecular target: Get3^BDP•TA targeting complex (Get3 dimer with the model tail-anchored substrate 3xStrep-SUMOnc-Bos1-opsin) (yeast | not stated) (UniProt Q12154)
Assay: FRET or BRET

Chain of Get3^BDP•TA targeting complex (Get3 dimer with the model tail-anchored substrate 3xStrep-SUMOnc-Bos1-opsin) (yeast | not stated) (Q12154 whole entry, chain 1 of 2): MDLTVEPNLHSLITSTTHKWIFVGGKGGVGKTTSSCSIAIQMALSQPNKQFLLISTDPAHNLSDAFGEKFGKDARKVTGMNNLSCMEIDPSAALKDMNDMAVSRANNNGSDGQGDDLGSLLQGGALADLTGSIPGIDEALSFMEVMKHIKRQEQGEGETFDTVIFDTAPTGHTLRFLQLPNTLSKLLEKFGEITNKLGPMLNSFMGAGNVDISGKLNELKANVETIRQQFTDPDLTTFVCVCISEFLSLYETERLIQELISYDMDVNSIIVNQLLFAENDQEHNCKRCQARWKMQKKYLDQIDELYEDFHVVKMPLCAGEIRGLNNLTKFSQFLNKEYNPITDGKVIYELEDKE
Chain of Get3^BDP•TA targeting complex (Get3 dimer with the model tail-anchored substrate 3xStrep-SUMOnc-Bos1-opsin) (yeast | not stated) (P25385 203-244, chain 2 of 2, further chain): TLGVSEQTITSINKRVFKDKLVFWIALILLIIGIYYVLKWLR

Kd [nM] | reduction in donor fluorescence (FRET) [%] | Substance
7.1 |  | mini-Get1(NR)/2^TMR (from UniProt P53192 20-102; P40056 1-150) (complex)
 | 50 | mini-Get1/2^TMR (mini-Get1/2 labeled with TMR on Get2CD) (from UniProt P53192 20-102; P40056 1-150) (complex)
 | 50 | mini-Get1^TMR/2 (mini-Get1/2 labeled with TMR on Get1CD) (from UniProt P53192 20-102; P40056 1-150) (complex)
